Measured values taken from article PMC10397247.

Assays:
4H1388-AA = biological target: T1, 4H1388-AA; experiment: two-hybrid library CCmax;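 note: natural log of median RNA to DNA barcode read ratio; higher means stronger binding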
T1 chain: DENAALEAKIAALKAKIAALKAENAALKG

4H1401-AA = biological target: T2, 4H1401-AA; experiment: two-hybrid library CCmax; conditions: mean of both orientations;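 note: natural log of median RNA to DNA barcode read ratio; higher means stronger binding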
T2 chain: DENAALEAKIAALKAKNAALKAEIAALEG

4H1513-AA = biological target: T3, 4H1513-AA; experiment: two-hybrid library CCmax; conditions: mean of both orientations;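 note: natural log of median RNA to DNA barcode read ratio; higher means stronger binding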
T3 chain: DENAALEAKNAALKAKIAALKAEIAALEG

4H1594-AA = biological target: T4, 4H1594-AA; experiment: two-hybrid library CCmax; conditions: mean of both orientations;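 note: natural log of median RNA to DNA barcode read ratio; higher means stronger binding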
T4 chain: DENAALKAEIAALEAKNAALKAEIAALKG

4H1629-AA = biological target: T5, 4H1629-AA; experiment: two-hybrid library CCmax; conditions: mean of both orientations;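 note: natural log of median RNA to DNA barcode read ratio; higher means stronger binding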
T5 chain: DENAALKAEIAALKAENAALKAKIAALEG

4H1845-AA = biological target: T6, 4H1845-AA; experiment: two-hybrid library CCmax; conditions: mean of both orientations;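 note: natural log of median RNA to DNA barcode read ratio; higher means stronger binding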
T6 chain: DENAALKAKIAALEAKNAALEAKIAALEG

4H1874-AA = biological target: T7, 4H1874-AA; experiment: two-hybrid library CCmax; conditions: mean of both orientations
T7 chain: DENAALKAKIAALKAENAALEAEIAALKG

4H2198-AA = biological target: T8, 4H2198-AA; experiment: two-hybrid library CCmax; conditions: mean of both orientations
T8 chain: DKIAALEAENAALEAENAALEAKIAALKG

4H2553-AA = biological target: T9, 4H2553-AA; experiment: two-hybrid library CCmax; conditions: mean of both orientations
T9 chain: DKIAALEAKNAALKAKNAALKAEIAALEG

4H2611-AA = biological target: T10, 4H2611-AA; experiment: two-hybrid library CCmax; conditions: mean of both orientations
T10 chain: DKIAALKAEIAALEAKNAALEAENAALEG

4H2620-AA = biological target: T11, 4H2620-AA; experiment: two-hybrid library CCmax; conditions: mean of both orientations
T11 chain: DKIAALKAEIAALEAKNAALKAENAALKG

4H2648-AA = biological target: T12, 4H2648-AA; experiment: two-hybrid library CCmax; conditions: mean of both orientations
T12 chain: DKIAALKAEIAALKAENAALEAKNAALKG

4H2907-AA = biological target: T13, 4H2907-AA; experiment: two-hybrid library CCmax; conditions: mean of both orientations
T13 chain: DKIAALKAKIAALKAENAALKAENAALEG

4H3056-AA = biological target: T14, 4H3056-AA; experiment: two-hybrid library CCmax; conditions: mean of both orientations
T14 chain: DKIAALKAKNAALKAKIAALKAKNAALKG

4H3133-AA = biological target: T15, 4H3133-AA; experiment: two-hybrid library CCmax; conditions: mean of both orientations
T15 chain: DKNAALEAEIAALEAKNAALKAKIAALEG

4H3162-AA = biological target: T16, 4H3162-AA; experiment: two-hybrid library CCmax; conditions: mean of both orientations
T16 chain: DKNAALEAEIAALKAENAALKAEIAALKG

4H32-AA = biological target: T17, 4H32-AA; experiment: two-hybrid library CCmax; conditions: mean of both orientations
T17 chain: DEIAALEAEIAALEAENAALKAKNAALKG

4H3378-AA = biological target: T18, 4H3378-AA; experiment: two-hybrid library CCmax; conditions: mean of both orientations
T18 chain: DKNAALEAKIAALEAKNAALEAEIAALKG

4H340-AA = biological target: T19, 4H340-AA; experiment: two-hybrid library CCmax; conditions: mean of both orientations
T19 chain: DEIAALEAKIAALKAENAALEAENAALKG

4H3413-AA = biological target: T20, 4H3413-AA; experiment: two-hybrid library CCmax; conditions: mean of both orientations
T20 chain: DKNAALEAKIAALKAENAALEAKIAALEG

4H3588-AA = biological target: T21, 4H3588-AA; experiment: two-hybrid library CCmax; conditions: mean of both orientations
T21 chain: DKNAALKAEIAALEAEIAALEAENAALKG

4H3606-AA = biological target: T22, 4H3606-AA; experiment: two-hybrid library CCmax; conditions: mean of both orientations
T22 chain: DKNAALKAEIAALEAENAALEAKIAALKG

4H3631-AA = biological target: T23, 4H3631-AA; experiment: two-hybrid library CCmax; conditions: mean of both orientations
T23 chain: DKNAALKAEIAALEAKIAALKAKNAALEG

4H3697-AA = biological target: T24, 4H3697-AA; experiment: two-hybrid library CCmax; conditions: mean of both orientations
T24 chain: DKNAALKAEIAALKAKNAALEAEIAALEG

4H3718-AA = biological target: T25, 4H3718-AA; experiment: two-hybrid library CCmax; conditions: mean of both orientations
T25 chain: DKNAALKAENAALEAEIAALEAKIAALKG

4H384-AA = biological target: T26, 4H384-AA; experiment: two-hybrid library CCmax; conditions: mean of both orientations
T26 chain: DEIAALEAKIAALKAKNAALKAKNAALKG

4H3865-AA = biological target: T27, 4H3865-AA; experiment: two-hybrid library CCmax; conditions: mean of both orientations
T27 chain: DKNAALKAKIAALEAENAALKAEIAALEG

4H697-AA = biological target: T28, 4H697-AA; experiment: two-hybrid library CCmax; conditions: mean of both orientations
T28 chain: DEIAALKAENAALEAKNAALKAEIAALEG

4H982-AA = biological target: T29, 4H982-AA; experiment: two-hybrid library CCmax; conditions: mean of both orientations
T29 chain: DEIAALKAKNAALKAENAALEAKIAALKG

4H1373-bH = biological target: T30, 4H1373-bH; experiment: two-hybrid library CCNG1
T30 chain: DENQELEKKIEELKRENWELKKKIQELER

4H1449-bH = biological target: T31, 4H1449-bH; experiment: two-hybrid library CCNG1
T31 chain: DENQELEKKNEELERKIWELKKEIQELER

4H1544-bH = biological target: T32, 4H1544-bH; experiment: two-hybrid library CCNG1
T32 chain: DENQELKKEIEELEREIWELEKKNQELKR

4H1710-bH = biological target: T33, 4H1710-bH; experiment: two-hybrid library CCNG1
T33 chain: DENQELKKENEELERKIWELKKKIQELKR

4H1899-bH = biological target: T34, 4H1899-bH; experiment: two-hybrid library CCNG1
T34 chain: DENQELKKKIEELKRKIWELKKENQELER

4H1985-bH = biological target: T35, 4H1985-bH; experiment: two-hybrid library CCNG1
T35 chain: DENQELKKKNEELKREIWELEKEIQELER

4H3162-bH = biological target: T36, 4H3162-bH; experiment: two-hybrid library CCNG1
T36 chain: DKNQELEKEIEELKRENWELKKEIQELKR

4H3175-bH = biological target: T37, 4H3175-bH; experiment: two-hybrid library CCNG1
T37 chain: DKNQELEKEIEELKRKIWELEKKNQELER

4H3277-bH = biological target: T38, 4H3277-bH; experiment: two-hybrid library CCNG1
T38 chain: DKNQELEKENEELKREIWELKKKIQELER

4H3298-bH = biological target: T39, 4H3298-bH; experiment: two-hybrid library CCNG1
T39 chain: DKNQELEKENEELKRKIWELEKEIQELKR

4H3462-bH = biological target: T40, 4H3462-bH; experiment: two-hybrid library CCNG1
T40 chain: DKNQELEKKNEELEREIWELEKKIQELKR

4H3497-bH = biological target: T41, 4H3497-bH; experiment: two-hybrid library CCNG1
T41 chain: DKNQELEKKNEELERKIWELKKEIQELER

4H3613-bH = biological target: T42, 4H3613-bH; experiment: two-hybrid library CCNG1
T42 chain: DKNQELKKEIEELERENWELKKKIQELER

4H3628-bH = biological target: T43, 4H3628-bH; experiment: two-hybrid library CCNG1
T43 chain: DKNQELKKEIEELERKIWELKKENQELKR

4H3782-bH = biological target: T44, 4H3782-bH; experiment: two-hybrid library CCNG1
T44 chain: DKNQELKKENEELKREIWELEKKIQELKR

4H3817-bH = biological target: T45, 4H3817-bH; experiment: two-hybrid library CCNG1
T45 chain: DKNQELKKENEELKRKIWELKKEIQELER

4H3843-bH = biological target: T46, 4H3843-bH; experiment: two-hybrid library CCNG1
T46 chain: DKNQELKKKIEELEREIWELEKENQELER

4H3858-bH = biological target: T47, 4H3858-bH; experiment: two-hybrid library CCNG1
T47 chain: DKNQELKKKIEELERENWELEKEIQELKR

4H3926-bH = biological target: T48, 4H3926-bH; experiment: two-hybrid library CCNG1
T48 chain: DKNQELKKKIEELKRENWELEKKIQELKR

4H3974-bH = biological target: T49, 4H3974-bH; experiment: two-hybrid library CCNG1
T49 chain: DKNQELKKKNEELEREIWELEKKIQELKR

4H570-bH = biological target: T50, 4H570-bH; experiment: two-hybrid library CCNG1
T50 chain: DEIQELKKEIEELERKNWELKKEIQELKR

4H591-bH = biological target: T51, 4H591-bH; experiment: two-hybrid library CCNG1
T51 chain: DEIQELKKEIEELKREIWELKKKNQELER

4H626-bH = biological target: T52, 4H626-bH; experiment: two-hybrid library CCNG1
T52 chain: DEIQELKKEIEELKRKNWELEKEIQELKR

4H730-bA = biological target: T53, 4H730-bA; experiment: two-hybrid library CCNG1
T53 chain: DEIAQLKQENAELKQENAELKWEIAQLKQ

4H850-bH = biological target: T54, 4H850-bH; experiment: two-hybrid library CCNG1
T54 chain: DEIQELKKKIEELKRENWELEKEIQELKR

4H906-bH = biological target: T55, 4H906-bH; experiment: two-hybrid library CCNG1
T55 chain: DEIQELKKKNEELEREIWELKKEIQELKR

4H932-bN = biological target: T56, 4H932-bN; experiment: two-hybrid library CCNG1
T56 chain: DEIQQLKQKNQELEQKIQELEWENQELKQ

O8 = biological target: T57, O8; experiment: two-hybrid library CCNG1
T57 chain: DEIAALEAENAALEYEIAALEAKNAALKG

DENAALEAKIAALKAKIAALKAENAALKG [4H1388-AA]
interaction score (4H1388-AA): -0.698 | interaction score (4H1401-AA): -2 | interaction score (4H1513-AA): -0.0302 | interaction score (4H1594-AA): -1.66 | interaction score (4H1629-AA): -1.24 | interaction score (4H1845-AA): -1.71 | interaction score (4H1874-AA): -1.59 | interaction score (4H2198-AA): -1.08 | interaction score (4H2553-AA): -1.78 | interaction score (4H2611-AA): -0.829 | interaction score (4H2620-AA): -0.0212 | interaction score (4H2648-AA): -0.194 | interaction score (4H2907-AA): -0.775 | interaction score (4H3056-AA): -1.68 | interaction score (4H3133-AA): -1.57 | interaction score (4H3162-AA): -1.45 | interaction score (4H32-AA): 2.52 | interaction score (4H3378-AA): -1.68 | interaction score (4H340-AA): -0.251 | interaction score (4H3413-AA): -1.7 | interaction score (4H3588-AA): 2.13 | interaction score (4H3606-AA): 0.583 | interaction score (4H3631-AA): 0.242 | interaction score (4H3697-AA): -1.77 | interaction score (4H3718-AA): -0.0337 | interaction score (4H384-AA): -0.356 | interaction score (4H3865-AA): -1.23 | interaction score (4H697-AA): -1.54 | interaction score (4H982-AA): -2.08

DENQELEKKIEELKRENWELKKKIQELER [4H1373-bH]
interaction score (4H1373-bH): 0.778 | interaction score (4H1449-bH): -1.04 | interaction score (4H1544-bH): -0.374 | interaction score (4H1710-bH): -2.29 | interaction score (4H1899-bH): -2 | interaction score (4H1985-bH): 0.5 | interaction score (4H3162-bH): 0.645 | interaction score (4H3175-bH): 0.281 | interaction score (4H3277-bH): -0.681 | interaction score (4H3298-bH): 0.0783 | interaction score (4H3462-bH): -0.048 | interaction score (4H3497-bH): -0.763 | interaction score (4H3613-bH): 0.423 | interaction score (4H3628-bH): -1.36 | interaction score (4H3782-bH): -0.345 | interaction score (4H3817-bH): -0.502 | interaction score (4H3843-bH): -0.0729 | interaction score (4H3858-bH): 0.654 | interaction score (4H3926-bH): 1.67 | interaction score (4H3974-bH): 0.369 | interaction score (4H570-bH): 0.082 | interaction score (4H591-bH): -0.84 | interaction score (4H626-bH): -0.984 | interaction score (4H730-bA): -0.488 | interaction score (4H850-bH): -0.156 | interaction score (4H906-bH): -0.627 | interaction score (4H932-bN): 0.58 | interaction score (O8): -0.719
